Assay: yeast display, Sf9 membrane polyspecificity reagent, FACS + sequencing; frameworks hold sequencing errors
Outline: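 Galactose-induced (36–48 hours) yeast carrying a synthetic nanobody display library were exposed to 10% biotinylated, detergent-solubilized Sf9 membrane reagent at 4 °C for 1 hour. FACS followed streptavidin microbead enrichment, using low and high (top ~1%) gates for expression (anti-HA) and reagent binding (streptavidin). Colony PCR, MiSeq 2 × 250 sequencing and CDR-length filtering followed. Labels for polyreactivity reflect the gate of origin.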

Sequence	polyreactivity (PSR sort gate)
QVQLQESGGVQAGGSLRLSSAASSYISRSDVMGWYRQAPGKERELVATINNGTITYYADSVKGRFTISRDNAKNTVYLQMNSLKPEDTAVHYFAVVQSDTDSLYYWGHGTQVTVSS	low polyreactivity
QVQLQESGRGLVQAGGSLRLSCAASGSISILQSMGWYRQAPGKERELVAGINWGATTYYADSVKGRLTTSRDYAKNTVYLQMNSLKPEDTAVYYCAVPTYYTYPLLYWGQGTQVTVSS	low polyreactivity
QVQLQESGRRPGAAGGSPRISCAASGYIFWVAVMGRYRQAPGKDRELVASIGFGCTTYYADSVKCRFTISRDNAKNSVYLQMISLKPEDTAVYYCAAPHYDWGELDYWGQGTQVPVSS	low polyreactivity
QVQLQESGRRPGAAGGSPRMSCAASGNIFWVAVMGRYRQAPGKERELVASIGFGCTTYYADSVKCRFTISRDNAKNTVYLQMISLKPEDTAVYYCAAPHYDWGEIDYWGQGTQVPVSS	low polyreactivity
QVQLQESGRRPGAAGGSPRMSCAASGNIFWVAVMGRYRQAPGKERELVASIGFGCTTYYADSVKCRFTISRDNAKNTVYLQMISLKPEDTAVYYCAAPHYDWGELDYWGQGTQVPVSS	low polyreactivity
QVQLQESGRRPGAAGGSPRMSCAASGNIFWVAVMGRYRQEPGQERELVASIGFGCTTYYADSVKCRFTISRDNAKNTVYLQMISLKPEDTAVYYCAAPHYDWGELDYWGQGTQVPVSS	low polyreactivity
QVQLQESGSGLVQAGGSLRLGCAASGNISDAGYMGWYRQAPGKEREFVAAIAAGSNTNYADSVKGRFTISRDNAKNTVYLQLNSLKPEVTAVFYCAVASYARVQYEYWGQGTQVTVNS	low polyreactivity
QVQLQESGSGLVQAGGSLRLSCAASGYISLGDNMGWYRQAPGKDREFGATISVGGITYYVDSVKGRFTISRDIAKNTVYLQMNSLTPEDTAVYYCAALEIYYFRYYYWGQGTQVTVSS	low polyreactivity
QVQLQESGSGLVQAGGSLRLSSAASGNISHYNDMGWYRQAPGKEREPVATINSGSITYYADSVKGRFTISRDNAKNTVYLQMNSLKPEDTAVYYCAVTQHGYFYLDYWGQGTQVTVSS	high polyreactivity
QVQLQESGVGLVQAGGSLGCAASGNISTRSEMGWYRQAPGKEREFVATINSGGITNYADSVKGRFTISRDNAKNTVYLRMNSLKPEDTAVYYREVYGYFSDPYDYWGQGTQVTVSS	low polyreactivity
QVQLQESGVGLVQAGGSLRLSCAASGTIFRISDMGSYRQAPGKEREFVAAITYGANTYYADSGKGRFTISRDNAKNTVYLQMNSLKPEDTAVYYWAVPPVKETILDYWGQGTQVTVSS	low polyreactivity
QVQLQESRGGLLQAGGSLCLSCAASGNIIFDGDMRWYRQAPGKEREFVAAINPGGSAYYADSVKGRLPLAAITHTVYLQLNSLNPPDTAVYYCAAKLFDVYGYYYWGQGTHVTVSS	low polyreactivity
QVQLQESRGGLVQAGGSLCLSCAASGTIFIDGDMGWYRQAPGKEREFVAAIKPGGSAYYADSVKGRLPLAAITHTVYLQMNSLKPEDTAVYYCAAKLFDVYGYYYWGQGTQVTLSS	low polyreactivity
QVQLQESSGGLVQAGGSLRMSCAASGTIFNFHIMGWYRQAPGKEREFVAAISYGTSTYYADSVKGRFTISRDNAKNTVYLQMNSQKPEDTAVYYCAVFDYLEVYCWYWGQGTQVTVSS	low polyreactivity
QVQLQESVGGLVQACGSLRLSCAASGYIFSHQYMGWYRQAPGKERELVASISPGATTNYADSVKGRFTISRDNAKNTVYLQMNSLKPEDTAVYYYAVYQILDRRLSYWGQGTQVTVSC	high polyreactivity
QVQLQESVGGLVQAGGSLRLSCAASGNIFPTDRMGWYRQAPGKELEFVATISHGGSTNYADSVKGRFTISRDNAKNTVYLQMNSLKPEDTAVYYCAVWSLGRWRHYYWGQGTQVTVRS	low polyreactivity
QVQLQESVGGLVQAGGSLRLSCPASGSIFKVVDMVLYRQAPAKEREFVATIGVGGNTYYADSVKGRFTISRDNAKNTVYLQMNSLKPEDTAVYFYAVVLGTSYRYTYWGQGTQVTVSS	low polyreactivity
QVQLQESVGGLVQAGGTLRLSCAGRGNIYTHQLYMGSYRQAPGKEIDFVAAINFGASPYYADSVKGRNTISRDNAKNTVYLLMNSLKPEDTAVYYCAADSAFYDEYQEDYWGQGTQVTLSS	low polyreactivity
QVQLQESVVGLEQAGGSLRLSCAASGNIFPTDRMGWYRQAPGKELEFVATISHGGSTNYADSVKGRFTISRVNAKNTVYLQLNSLKPEDTAVYYCAVWSLGRWRHYYWGQGTQVTVSS	low polyreactivity
QVQLQETGGGLVQAGGSLRQSCAASRSISPWSYMGRYRQAPGKEREFVASINAGTNTYYADSAKGRITISRDNAKNTVYLQMNSLKPEDTAAYYCAARYWNDYYFPYWGQGTEVTVSS	low polyreactivity
QVQLQETGGGLVQVGGSQRLSCAASGNIFYNYAMGWYRHAQGKEREFDATINHGTSINDADSVKGRFTISRDNAKNTVYLQMNSLTPEDTAVYYCAADLSWTDNLFYWGQGTQETVSS	low polyreactivity
QVQLQGSGGGLAQAGDSLRLSCAASGTIFSEYNNGLVSPGAGQRTRTCCRYWCWGNTYYADSAKGRFTTSRDNAKNTVYLQKNSLKPEDTAVYYCAFNRPYPSRHIYRGQGTQVTVSS	high polyreactivity

Sequence	polyreactivity (PSR sort gate)
QVQLQGSGGGLAQAGDSLRLSSEASGTIFSEYNNGLVSPGAGQRTRTCCRYWCWGNTYYPDSAKGRFTTSLDNAKNTVYLQKNSLKPEDTEVYYCAFNRPYPSRHIYRGQGTQVTVSS	high polyreactivity
QVQLQVSGGDLVQAGGSLRLSCAASGTIYGLTAMGWYRLAPGKEREFVAAITDGGNTNYADSVKGRFTISRDNAINTVYLQMISLKPEDTAVYYCAVLFSDDAYYAYWGQGTQVTVSS	low polyreactivity
QVQLQVSGGGLVNAGGSLRLSCAASGNISPRDAMGWYLQAPGEERDLVASNAYSAITYYADGVTGRSTISRDNAKNTEYLQMNSLKPEDTEVYYCAVYQFTYPVFPAYWGQGTQVTVSS	low polyreactivity
QVQLVASGGGLVQAGGSHRLSCAASGRIFYYYAMGWYRQAPGKERELVASINSGGSTYYADSVKGPFTISRDNAKHTVYFQMNSLKPEDTACYYCAAGFQLVKGSLSGRAAYYYWGQGTQVTVSS	high polyreactivity
QVQLVASGGGLVQAGGSLRLSCAASGRIFYAYAMGWYRQAPGKERELVAAITISASSTYYADSVKGRFTFSRDNAKNTVYLQMNSLKPEETAVFYCAAAYRRPWWYSYRYGYWGQGTQVTVSS	high polyreactivity
QVQLVASGGGLVQAGGSLRLSCAASGSIFARYALGWYSQAPGKEREWVAALRWSGGRTYYADSVKGRFTISRDNAKNTVYLQMNSLKPEDTAVDYCNAVIHRLGKTYGTNRVDYWGQGTQVTVSS	high polyreactivity
QVQLVASGGGLVQAGGSLRLSCAASGSTFGSNAMGWYRQAPGKERELVAPINSGDSTSYADSVKGRFTISRDNAKNTVYLQMNSLKPEDTAVYYCATRYYTFVWRHDYWGQGTQVTVSS	low polyreactivity
QVQLVASGGGLVQAGGSLRLSCAASGSTFPRYAMGWYRQAPWKERELVAAITTSGGSTYYADSVKGRFTISRDNAKNTVYLQMNRLKPEDTAVYYCAADYCYYLDAGYYWGQGTQVTVSS	low polyreactivity
QVQLVASGGGLVQAGGSLRLSCAASGYTLFRNAMGWYRQAPGKERELVAAISRSGARTYYADSVKGRFTISRDNAKNTVYLQMNSLLPEDTAVYYCAAVIKWTKDDYWGQGTQVTVSS	high polyreactivity
QVQLVASGVGLVQAVGSLRLSCAASGITFQYYTMGWYRQAPGKERELVAAINWSGGSTYYADSVKGRFTISRDNAKNTVYLQMNSLKPEDTAVYYCNAVRFVEHDYWGQGTQVTVSS	high polyreactivity
QVQLVDSAGGLVQAGGTLRLSCADSGFTCSYYAMGWYRQAPGTERELVAAITSGGSTDYADSVKGRFTISRDNEKNTFYLQMHSLKPVDTAVFYCKITPYYAVFYYWGPGTQVTVSS	high polyreactivity
QVQLVDSCGGLVQAGGSLRLSFAASGRIYGPYAMGWYRQAPGKERELVAAISFSGSGTYYADSVKGRFTISRDNAKNTVYLQMNSLKPEDTAVYYCAADRWAHTHRLGYWGQGTQVTVSS	low polyreactivity
QVQLVDSEVGLVQAGGSHRLSCSASARTFGRYAMGWYRQAPGKERELVATIRWRVGSTYYADSVKGSFTISRDNAKNTVYLQMNSLKPEDTAVFYCAARRYSSGLTDDYWGQGTQVTVSS	high polyreactivity
QVQLVDSGGALVQAGGSLRLRCAASGSTFFPNAKGWYRQAPGKERELVATIKYADSVKGRFTISRYNAKNTVYLQMNSLKPEDTAVYYCAGGGRVRYDYWGQGTQVTVSS	low polyreactivity
QVQLVDSGGGIVQAGGSLRLSCAASGSTFGRKVMGWYRQAPGKERELVAAISFRGGSTYYADSVKGRFTISRDNAKNTVYLQMNSLKPEDTAVYYCARDYPTDAYDYWGQGTQVTVSS	low polyreactivity
QVQLVDSGGGLDQAGGSLRLSCAASGYTFWLYAMGWYRQAPGKERELVAAISRGGITNYADSVKGRFTISRDNAKNTVYLQMNSLKPEDTAVYYCAAEYRGRGWRYGYDDWGQGTQVTVSS	high polyreactivity
QVQLVDSGGGLLQAGGSLRLSCAASGRIFVYNAMGWYRQAPGKERELVAAITRGGSTYYADSVKGRFTISRDNAKNTVDLQMNSLKPEDPAGYYCAADYAWVSIYDNVPSAPGYDDWGQGTQGTVSS	low polyreactivity
QVQLVDSGGGLLQAGGSLRLSFAASGRTLNHYVMGWYRQAPGKERELVAAISSGGSTYYADSVKGRFTISRDNAKNTVYLQMNSLKPEDTAVYYCNAGVVGDYPYWGLMDYWGQGTKVTVSS	high polyreactivity
QVQLVDSGGGLVQAGASLRLSCAASGRIITAYYAMGWYRQAPGKERELVASISSSGTSTYADSVKGRFTISRDYAKNTVYLQMKSLKPEDTAVYYCATRKQRTRRYDYGYWGQGTQVTVSS	low polyreactivity
QVQLVDSGGGLVQAGGILRLSCAASGRIFYYNTMGWSRQAPGKERELVARITYSGGRTYYADSVKGRFTISRDNAKNTVYLQMNSLKPEDTAVYYCAARRRTFYATSSAINGYDYWGQGTQVTVSS	high polyreactivity
QVQLVDSGGGLVQAGGRLRLSCAASGRTFRTNAMGWYRQAPGKERELVAAISRTGRTNYADSVKGRFTISRDNAKNTVYLQMNSLKPEDTAVYYCAADRVGWSGYRGDYWGQGTQVTVSS	high polyreactivity
